Results: the supplement of paper PMC9170038

Test system: MS2 coat protein
Assay: apparent KD of MS2 coat protein; designed switch direction (-1 OFF switch, 1 ON switch): -1; higher = weaker reporter binding
Outline: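 The buffer was Tris-HCl pH 7.5 with KCl, MgCl2, BSA, DTT, tRNA and Tween-20. In it, SNAP-549-labelled MS2 coat protein was titrated in doubling steps from 0.7 or 1.5 nM to 3 µM over chip-bound RNA switches transcribed by stalled E. coli RNA polymerase on Illumina chips. Apparent KD is the per-design median over clusters of curve fits to normalised fluorescence.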

[1] = Eterna round: R95, input ligand: microRNA oligo, concentration not stated
[2] = input ligand: microRNA oligo, concentration not stated
[3] = Eterna round: R95, input ligand: FMN 200 uM
[4] = Eterna round: R95, input ligand: none

Row | Sequence | apparent KD of MS2 coat protein (input ligand: FMN 200 uM) | apparent KD of MS2 coat protein (input ligand: none) | apparent KD of MS2 coat protein [1] | also measured
1 | UCUUAUUGAGGAUAUACAUUAAAAUACAUGAGGAUCACCCAUGUUCUUCAAUGUAUAUAUGUAGAAGGCAGAAUAU [Mat - Exclusion 5 - JL Mod - D27] (Eterna round: R97, puzzle: Exclusion 5) | 61.2 nM | 28.8 nM | – | –
2 | UCUUAUUGCAAGGAUAUGCAAUUUAUUUUUUAUGCAGAAGGUGCAACAUGAGGAUCACCCAUGUUUCCGGGCAU [JR_E6_Sub037] (puzzle: Exclusion 6) | – | – | 13.5 nM | –
3 | UCUUAUUGCAAGGAUAUGCUAUUUAUUUUUUUUGCAGAAGGUGCAACAUGAGGAUCACCCAUGUUUCCGGGCAU [JR_E6_Sub036] (puzzle: Exclusion 6) | – | – | 20.3 nM | –
4 | UCUUCAGCCAAGUUCACAUACAUGAGGAUCACCCAUGUUGCGUAACGCAUGCAUAUCCUAGUUGCUCGUUCUACAGU [Eternabot (L1) Solution 6] (Eterna round: R97, puzzle: Sensor, turn-off variant 1) | 26.4 nM | 33.1 nM | – | –
5 | UCUUUGUGAGGAUAUCAGUAGUAAAUAAAUAAAAUUACUACUGAGAAGGCACAUGAGGAUCACCCAUGUUCCUU [salish99_ex3_r3_091] (puzzle: Exclusion 4) | – | – | 13.5 nM | –
6 | UGAAGGUCAGGAUAUGAGUCUAUCUGACGCAGACAUAGACAUUAGAAGGGACAUGAGGAUCACCCAUGUGGGAC [Eternabot (L1) Solution 29] (Eterna round: R97, puzzle: Exclusion 4) | 106 nM | 84.8 nM | – | –
7 | UGAAUGUCAGGAUAUCGUGCAUACAACGAAAGUUCUAUGUGCGAGAAGGGACAUGAGGAUCACCCAUGUCUUCG [Omei Ex4 A15] (Eterna round: R97, puzzle: Exclusion 4) | 50.7 nM | 18.3 nM | – | –
8 | UGAGCUACAGGAUAUAUGUGGCGACCGUGAGGUCGAAGGUUACAUGAGGAUCACCCAUGUAGAAGGGUAGUUCU [Mat - Exclusion 2 - JL Mod - D20] (Eterna round: R97, puzzle: Exclusion 2) | 311 nM | 284 nM | – | –
9 | UGAGCUUCAGGAUAUACGUGACGACCGUGAGGUCGAAGGUUACAUGAGGAUCACCCAUGUAGAAGGGAAGUUCU [Mat - Exclusion 2 - JL Mod - D27] (Eterna round: R97, puzzle: Exclusion 2) | 70.8 nM | 27.5 nM | – | –
10 | UGAGUGCUGCGAGGAUAUACAUGAGGAUCACCCAUGUUUACCUGUGAGGCAAAGCCUCACAGGUUGUAGAAGGCGCAGUACUCU [Mat - Exclusion NG 2 - Mod of JL - D41] (Eterna round: R96, puzzle: Exclusion NG 2) | 16 nM | 18.6 nM | – | apparent KD of MS2 coat protein [2]: 11.3 nM
11 | UGAUCAGACCGAGGAUAUACAUGGAGGACCCACGUGAGUGGGUCCACUACAUGAGGAUCACCCAUGUAGAAGGCGGUCUGAUCU [JL ENG2 1.91] (Eterna round: R96, puzzle: Exclusion NG 2) | 1880 nM | 128 nM | – | apparent KD of MS2 coat protein [2]: 91.3 nM
12 | UGAUUGAUUAACAGAUUAUACAUGAGGAUCACCCAUGUAGGUCCUACGUGCCCUUUAAGCAGCUCGUCUUAUUCCCA [Sensor-V1 #69] (Eterna round: R97, puzzle: Sensor, turn-off variant 1) | 43.7 nM | 45.6 nM | – | –
13 | UGCAGACGAGGAUAUAGAUUUAAGUACAUGAGGAUCACCCAUGUACACAUGUAUUUAGAUUUAGAAGGCGUCUGCU [E5/17-A4] (Eterna round: R97, puzzle: Exclusion 5) | 987 nM | 1210 nM | – | –
14 | UGCAUGCUAGGAUAUACGAAACAUUAGGGUUCUUUGUAUGAACAUGAGGAUCACCCAUGUAGAAGGAGCGUGCU [Mod7 of JL-ex2-2.15 mat747 mod] (puzzle: Exclusion 2) | – | – | 92.4 nM | –
15 | UGCAUGUGAGGAUAUGGCGCUCGAUUGCGGAAGGAGCGAGUUUAGAAGGUACAUGAGGAUCACCCAUGUCACGU [Eternabot (L2) Solution 97] (Eterna round: R97, puzzle: Exclusion 4) | 21.6 nM | 25.9 nM | – | –
16 | UGCGAGUAAGGAUAUUCGCGACCGUUCACAAGAACGGUCGAGAAGAAGGUACUUGAGGAUCACCCAAGUCCUAG [Leonxegece] (Eterna round: R97, puzzle: Exclusion 4) | 103 nM | 24.2 nM | – | –
17 | UGCGGUAGAGGAUAUACGUAGAAUUAGAUUCAUGUAAAACUACAUGAGGAUCACCCAUGUAGAAGGCUAUCGCU [JL-ex2-4.31 Eli mod] (Eterna round: R97, puzzle: Exclusion 2) | 102 nM | 19.3 nM | – | –

Row | Sequence | apparent KD of MS2 coat protein (input ligand: FMN 200 uM) | apparent KD of MS2 coat protein (input ligand: none) | apparent KD of MS2 coat protein [1] | also measured
18 | UGGCUGCUUAUGGAGUGUGACAUGAGGAUCACCCAUGUGGUAGUAAGGAACAAGCUUUUUACACGUACUUAUAAAGC [JR_SV3TOV1_Sub012] (puzzle: Sensor v3, turn-off variant 1) | – | – | 64.3 nM | apparent KD of MS2 coat protein [3]: 296 nM; apparent KD of MS2 coat protein [4]: 438 nM
19 | UGGGAGGGAGGAUAUACGAAAGUUAUUCUCAUGUCAGACCCACAUGAGGAUCACCCAUGUAGAAGGCCCGGGUC [EX2 B.17] (Eterna round: R97, puzzle: Exclusion 2) | 358 nM | 203 nM | – | –
20 | UGGGUACUCCAUAGAAGAGACAUGAGGAUCACCCAUGUAGGGCAAGCUUUUUGCUCGUCUUAGGAUGAGGGAUAGGA [JR_SV3TOV1_Sub014] (puzzle: Sensor v3, turn-off variant 1) | – | – | 79.1 nM | apparent KD of MS2 coat protein [3]: 171 nM; apparent KD of MS2 coat protein [4]: 188 nM
21 | UGGGUUCUCCAUAGAAGUAACAUGAGGAUCACCCAUGUAGGGCAAGUUUUUUGUUCGUCAUAGGCUGUGGAUUUGGA [JR_SV3TOV1_Sub020] (puzzle: Sensor v3, turn-off variant 1) | – | – | 170 nM | apparent KD of MS2 coat protein [3]: 90.8 nM; apparent KD of MS2 coat protein [4]: 133 nM
22 | UGGGUUGUUGUGAGGAUAUACUGUUUGUUUUGUUUGUAGAAGGUACAUGAGGAUCACCCAUGUUGGUUGUGGUU [JR_BME4_Sub031] (puzzle: Brourd's mod of Exclusion 4) | – | – | 204 nM | –
23 | UGGUAGUGAGGAUAUCCAAUAUAUGACAUGAGGAUCACCCAUGUUUCCACUCGUACCUCCGGAGAAGGCACAUGGU [Ex5 #54] (Eterna round: R97, puzzle: Exclusion 5) | 67.6 nM | 61.9 nM | – | –
24 | UGGUAGUUAGGAUAUACAUGAGGAUCACCCAUGUACGGGUGCAGAAAAGAAAGCCUUCGUAGAAGGAACACCUG [Aaredima] (Eterna round: R97, puzzle: Exclusion 3) | 69.1 nM | 62.6 nM | – | –
25 | UGGUCACAUGAGGAUCACCCAUGUCAGGAUAUCGUCACUGGAGCUUCGGCUCCAGUGACGAGAAGGGAUAUAAU [E1/9-A1] (Eterna round: R97, puzzle: Exclusion 1) | 191 nM | 57.8 nM | – | –
26 | UGGUCCCUGAAACAUGAGGAUCACCCAUGUAUAAUGAGGACAAAGGAUAUAUCCCACCAGGUAGGGUAGAAGGUUGAACUCUAC [Eternabot solution 42] (Eterna round: R96, puzzle: Exclusion NG 3) | 13.1 nM | 16.2 nM | – | apparent KD of MS2 coat protein [2]: 10.6 nM
27 | UGUACGAUGCGUGCUGACAUGCGUCGUGCAGCAGGUGUUACAUGAGGAUCACCCAUGUCCUCAUUUGCUCGUCUUGU [SL-sv3-2.09 JL mod] (puzzle: Sensor v3, turn-off variant 2) | – | – | 185 nM | apparent KD of MS2 coat protein [3]: 379 nM; apparent KD of MS2 coat protein [4]: 374 nM
28 | UGUACUAACACGUAAGUGUUAGUACUAUAAGCUUGUGUUACAUGAGGAUCACCCAUGUCCUCAUAAGCUCGUCUUAA [Mat - Sensor v3 - Turn-off var 2 - D72] (puzzle: Sensor v3, turn-off variant 2) | – | – | 182 nM | apparent KD of MS2 coat protein [3]: 39.7 nM; apparent KD of MS2 coat protein [4]: 37.2 nM
29 | UGUAGGUCUACCUUGGUGGAUCUGCAUUUUUGCAGGUGUACAUGAGGAUCACCCAUGUCCUCAUUUGCUCGUCUUAU [JL turnoff v2 99.31] (puzzle: Sensor v3, turn-off variant 2) | – | – | 560 nM | apparent KD of MS2 coat protein [3]: 467 nM; apparent KD of MS2 coat protein [4]: 542 nM
30 | UGUCUCCUCGUCAGGAUAUUUCGUUGUGCAGACUGAAAGAAGGGACAUGAGGAUCACCCAUGUACCUCGUCGGU [Eternabot (L2) Solution 98] (Eterna round: R97, puzzle: Brourd's mod of Exclusion 4) | 22.3 nM | 16.9 nM | – | –
31 | UGUGCGUAUGUGAGGAUAUGCUGGUCCUUGGAUCAGCAGAAGGCACAUGAGGAUCACCCAUGUGGUGUCGUACU [salish99_Bmod_Ex4_009] (puzzle: Brourd's mod of Exclusion 4) | – | – | 202 nM | –
32 | UGUGCGUAUGUGAGGAUAUGCUGGUCCUUGGCUCGGCAGAAGGCACAUGAGGAUCACCCAUGUGGUGUCGUACA [salish99_Bmod_ex4_071] (puzzle: Brourd's mod of Exclusion 4) | – | – | 158 nM | –
33 | UGUGUGAGACAGGAUAUGCUGGAUGUGUGGCGGGUAGAAGGGUCUACAUGAGGAUCACCCAUGUGGCCGGUUGG [Ex6 #69] (Eterna round: R97, puzzle: Exclusion 6) | 15.8 nM | 18.9 nM | – | –
34 | UGUUGUCGCGCAGGAUAUUGUCAACAGGCAGUAGGAUAUCCGAAAGGAGAAGGACCGCCAACAGGCGAGAAGGGCGGGACAACU [pwkr exNG2 2xF7 2xFMN.9] (Eterna round: R96, puzzle: Exclusion NG 2) | 32.1 nM | 16 nM | – | apparent KD of MS2 coat protein [2]: 35.7 nM
